The values below come from article PMC4712875.

The assay deals with FGFR3 of chick prechordal mesoderm cells (chick (endogenous in prechordal mesoderm cells)) (UniProt P18460). Briefly: immunostaining of cells or tissue; isolated st6 chick prechordal mesoderm cells cultured until st8, incubated with proNodal-FLAG, detected with anti-FLAG; non-targeted cells.
Chain of UniProt P18460 (P18460 20-806): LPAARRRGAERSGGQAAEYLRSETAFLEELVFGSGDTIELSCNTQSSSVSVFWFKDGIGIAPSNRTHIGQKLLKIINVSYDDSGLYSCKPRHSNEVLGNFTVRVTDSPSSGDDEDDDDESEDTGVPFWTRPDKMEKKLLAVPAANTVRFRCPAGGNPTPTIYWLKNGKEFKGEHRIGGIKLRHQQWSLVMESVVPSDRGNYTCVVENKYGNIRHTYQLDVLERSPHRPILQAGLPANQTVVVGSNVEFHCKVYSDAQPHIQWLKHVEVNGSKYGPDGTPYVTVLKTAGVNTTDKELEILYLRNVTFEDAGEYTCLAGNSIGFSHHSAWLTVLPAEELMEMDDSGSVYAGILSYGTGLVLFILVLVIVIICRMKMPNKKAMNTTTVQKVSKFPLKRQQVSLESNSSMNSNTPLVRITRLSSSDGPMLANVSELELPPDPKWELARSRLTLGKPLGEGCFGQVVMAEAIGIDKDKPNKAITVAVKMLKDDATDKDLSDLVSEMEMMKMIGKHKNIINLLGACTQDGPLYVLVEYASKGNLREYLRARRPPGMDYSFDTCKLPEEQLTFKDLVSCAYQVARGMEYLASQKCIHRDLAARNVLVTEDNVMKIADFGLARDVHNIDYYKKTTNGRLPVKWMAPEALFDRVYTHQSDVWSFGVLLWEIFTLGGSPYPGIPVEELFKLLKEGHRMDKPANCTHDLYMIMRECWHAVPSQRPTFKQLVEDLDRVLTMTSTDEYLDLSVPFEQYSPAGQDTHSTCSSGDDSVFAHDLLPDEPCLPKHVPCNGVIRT

“recombinant proNodal (recombinant Nodal cleavage mutant resistant to proprotein convertases), FLAG-tagged (from UniProt P43021 27-354) (ligand)”: the percent of DAPI+ nuclei closely associated with anti-FLAG was 79%.
